Data reported in paper doi:10.1101/2024.10.23.619877.

Molecular target: 20S proteasome (human housekeeping 20S core) (human) (UniProt P60900)
Assay: AFM imaging with morphometric analysis of single particles

UniProt P60900, sequence (P60900 whole entry, looked up): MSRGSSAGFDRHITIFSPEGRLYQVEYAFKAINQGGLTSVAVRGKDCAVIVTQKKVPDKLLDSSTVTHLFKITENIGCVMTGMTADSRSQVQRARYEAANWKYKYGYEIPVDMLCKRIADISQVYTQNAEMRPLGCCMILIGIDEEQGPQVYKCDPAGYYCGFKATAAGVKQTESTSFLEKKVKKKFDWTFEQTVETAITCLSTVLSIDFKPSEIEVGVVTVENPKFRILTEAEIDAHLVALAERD

percent of particles that are 26S proteasomes (with 2 µM Aβ42 oligomers): 52.9% | percent of particles that are 26S proteasomes (without Aβ): 75.8%
Substance: 19S regulatory particle (complex)
